Reference: publication PMC8512817

Molecular target: A9UPE9 PDZ (A9UPE9_MONBE PDZ domain, residues 7-98) (Monosiga brevicollis)
Test: fluorescence polarisation

Substance | Ki [µM]
A9UXE1 peptide (QDETAL) | 460
A9UWP5_MONVE peptide (GSESSV) | 490
BPIX peptide (WDETNL) | 330
DLL1/DLL4 peptide (VIATEV) | 240
A9V7Z4 peptide (EDETAL) | 580
A9V6G5_MONBE peptide (HRESTV) | 97

Further substances by falling Ki, results first:

Ki [µM] | Substance
97 | TYRP1 peptide (PNQSVV)
95 | B1AR peptide (ASESKV)
64 | A9UP44 peptide (QSESRL)
